Test [1] concerns the target T1, KRAS(WT)-HLA-A2 (human, biotinylated in the recombinant monomer (site not stated)).
T1 construct: Monomer in ELISA and off-rate assays; on pulsed T2 cells in flow cytometry and CDC; also called KRAS(WT)-HLA-A2 monomer; KRAS(WT) peptide-pulsed T2 cells
The experiment in a line: off-rate ELISA on monomer-coated strips.

The target of test [2] is T2, KRAS(WT)-HLA-A3 (human, biotinylated in the recombinant monomer (site not stated)).
T2 construct: Monomer in ELISA; also called KRAS(WT)-HLA-A3 monomer; KRAS(WT) control peptide on T2A3 cells
The experiment in a line: ELISA of purified scFv on monomers, anti-Flag.

Test [3] has as its target T1, KRAS(WT)-HLA-A2. Description: phage ELISA after affinity maturation.
In test [4] the target is T3, ELA control peptide on HLA-A2 (human).
T3 construct: ELA-pulsed T2 cells; also called negative HLA-A2 control peptide ELA; irrelevant peptide
The experiment in a line: flow cytometry, peptide-pulsed T2 cells. A general note: In flow cytometry, cells or beads pass a laser one at a time.

Test [5] has as its target T1, KRAS(WT)-HLA-A2. Description: ELISA on monomers, anti-human IgG. Background: In an ELISA, binding on a coated surface is turned into a signal by an enzyme label.
The next test deals with T4, EGFR(WT)-HLA-A3 (human).
T4 construct: also called EGFR(WT) peptide-pulsed T2A3 cells
The experiment in a line: off-rate ELISA on monomer-coated strips, 22 C.

The target of test [6] is T2, KRAS(WT)-HLA-A3. Description: flow cytometry, T2A3 cells pulsed with the KRAS(WT) control peptide.
Test [7] addresses T1, KRAS(WT)-HLA-A2. The experiment in a line: flow cytometry, peptide-pulsed T2 cells.

Numbering of substitutions follows the chain as printed. Names may count otherwise.

B1: purified D10-7 scFv (scFv, not shown: small tags and cut ends)
scFv: DIQMTQSPSSLSASVGDRVTIACRASQDVNTAVAWYQQKPGKAPKLLIYSASFLYSGVPSRFSGSRSGTDFTLTISSLQPEDFATYYCQQYYYYPPTFGQGTKVEIKRTGGGSGGGGSGGGASEVQLVESGGGLVQPGGSLRLSCAASGFHINGSYIHWVRQAPGKGLKWVAYIDPETGYSRYADSVKGRFAISADMSKNTAYLQMNSLRAEDTAVYYCSRDSASDAMDVWGQGTLVTVSS
notes: conjugated to an anti-V5 antibody in the CDC assay
For B1, the binding result with KRAS(WT)-HLA-A2 [1] is recorded as “no binding”.

B2: purified D10 scFv (scFv, not shown: small tags and cut ends)
scFv: B1 scFv with A22T, H151N, K169E, A192T, M197T
notes: Flag/His form in ELISA, AlphaScreen and off-rate assays; V5/His form in cell staining and, conjugated 2:1 to an anti-V5 mouse antibody, in the CDC assay
B2: the binding result with KRAS(WT)-HLA-A3 [2] is given as “no binding (tested: 1 µg/mL (top of the dilution series))”.

B3: clone D10-7 (phage, as tested by ELISA in the affinity maturation) (scFv)
scFv: B1 scFv
notes: One of eight clones from the error-prone PCR library of D10; not shown: phage display fusion partner used at AxioMx is not described
Turning to B3, the binding result with KRAS(WT)-HLA-A2 [3] is “no binding”.

B4: D3E6 phage (scFv)
scFv: DIQMTQSPSSLSASVGDRVTITCRASQDVNTAVAWYQQKPGKAPKLLIYSASFLYSGVPSRFSGSRSGTDFTLTISSLQPEDFATYYCQQYYYYPPTFGQGTKVEIKRTGGGSGGGGSGGGASEVQLVESGGGLVQPGGSLRLSCAASGFNISTSYIHWVRQAPGKGLEWVATIDPNDGYSRYADSVKGRFTISADTSKNTAYLQMNSLRAEDTAVYYCSRTNNTAADAMDVWGQGTLVTVSS
notes: also called EGFR T790M clone 1; not shown: myc tag, TEV cleavage site and full length M13 pIII coat protein
Turning to B4, the binding result in test [4] is “no binding”.

B5: D10 MANAbody (antibody, V domains shown)
VH: EVQLVESGGGLVQPGGSLRLSCAASGFNINGSYIHWVRQAPGKGLEWVAYIDPETGYSRYADSVKGRFTISADTSKNTAYLQMNSLRAEDTAVYYCSRDSASDAMDVWGQGTLVTVSS
VL: DIQMTQSPSSLSASVGDRVTITCRASQDVNTAVAWYQQKPGKAPKLLIYSASFLYSGVPSRFSGSRSGTDFTLTISSLQPEDFATYYCQQYYYYPPTFGQGTKVEIK
notes: Complete bivalent antibody made in Expi293 cells; also called full-length D10 MANAbody; D10 antibody
For the molecule B5, in the test with KRAS(WT)-HLA-A2 [5], the binding result is reported as “no binding (tested: 1 µg/mL (top of the dilution series))”.

B6: purified C9 scFv (scFv)
scFv: DIQMTQSPSSLSASVGDRVTITCRASQDVNTAVAWYQQKPGKAPKLLIYSASFLYSGVPSRFSGSRSGTDFTLTISSLQPEDFATYYCQQYYSYPPTFGQGTKVEIKRTGGGSGGGGSGGGASEVQLVESGGGLVQPGGSLRLSCAASGFNITSSYIHWVRQAPGKGLEWVAYISPEDGYARHADSVKGRFTISADTSKNTAYLQMNSLRAEDTAVYYCSRDDTYYYSAMDVWGQGTLVTVSS
notes: not shown: Flag and His tags
As a reminder, the koff is the rate constant with which the complex falls apart. Low readings indicate slow dissociation, high ones fast dissociation. On to B6, for which the koff in the test with EGFR(WT)-HLA-A3 worked out at 3e-05 s⁻¹.

B7: phage clone C9 (scFv, not shown: large carriers)
scFv: B6 scFv
notes: also called C9 phage
Regarding B7, the binding result in the test with KRAS(WT)-HLA-A3 [6] is reported as “no binding”.

B8: KRAS G12V_F10 AM#1 (scFv)
scFv: DIQMTQSPSSLSASVGDRVTITCRASQDVNTAVAWYQQKPGKAPKLLIYSASFLYSGVPSRFSGSRSGTDFTLTISSLQPEDFATYYCQQYYYYPPTFGQGTKVEIKRTGGGSGGGGSGASEVQLVESGGGLVQPGGSLRLSCAASGFNINSNYIHWVRQAPGKGLEWVAYITPETGYYHYADSVKGRFTISADTSKNTAYLQMNSLRAEDTAVYYCSRNYYSAYAMDVWGQGTLVTVSS
With B8, in the test with KRAS(WT)-HLA-A2 [7], the binding result is reported as “no binding”.

B9: KRAS G12V_F10 AM#3 (scFv)
scFv: B8 scFv with T5S, A25T, V29A, I48F, Y55F, H180R
As for B9, the binding result with KRAS(WT)-HLA-A2 [7] is recorded as “no binding”.

B10: KRAS G12V_F10 AM#2 (scFv)
scFv: B8 scFv with S50G, N149Y
Regarding B10, the binding result with KRAS(WT)-HLA-A2 [7] was “no binding”.

Source of the values: patent publication US20180086832A1 (Johns Hopkins, published 2018).
